Biological target: human ACE2 extracellular domain (19-615) (human) (UniProt Q9BYF1)
Assay: SPR

RaTG13 RBD (333-526) (from UniProt A0ABF7PLN6 333-526) (domain or fragment; other documents disagree on this pair)
Kd: 500 nM

— article PMC7952905
